Laboratory results as given in US20140274782A1, “AFFINITY REAGENTS AND METHODS FOR DETECTION, PURIFICATION, AND PROTEOMIC ANALYSIS OF METHYLATED PROTEINS” (The Board of Trustees of the Leland Stanford Junior …, priority 2013, published 2014).

Assays:
3×MBT domain of L3MBTL1 = assay: Triple SILAC pull-down, 3xMBT/3xMBTD355N ratio (cytoplasmic, nuclear and chromatin fractions of 293T cells); assay type: binding, human; settings: SILAC ratio; for Protein Ratios 3xMBT/D355N: pull-down by 3xMBT vs 3xMBTD355N, 293T cells;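 as to all read-outs here: proteins quantified with MaxQuant, requiring at least two unique peptides and quantification in both label directions, normalized to the mean of proteins from a digested loading control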
Method: For stable isotope labeling by amino acids in cell culture (SILAC) experiments HEK 293T cells were grown for at least six doublings in DMEM for SILAC supplemented with 10% dialyzed fetal bovine serum (FBS), 230 mg/L L-proline and either 100 mg/L each of L-lysine and L-arginine (“light” medium), D4-L-lysine and ^13C6-L-arginine (“medium” media), or ^13C6^15N2-L-lysine and ^13C6^15N4-L-arginine (Thermo Scientific). Heavy methyl labeling used DMEM without L-Methionine or L-Cysteine supplemented with D3^13C-L-Methionine (Sigma), L-Cysteine (Sigma) and 10% dialyzed FBS.
For UNC0638 treatments cells were treated for 24 hours with UNC0638 at 2.5 μM or DMSO vehicle control. One experiment treated cells in light media with UNC0638, the other treated cells in heavy media. Both experiments included cells in medium media treated with DMSO for negative control pull-down with 3×MBTD355N.
UNC0638 treatment experiments used a Q-Exactive mass spectrometer (ThermoFisher Scientific). A 25 cm HPLC column with 3 μm Reliasil (Orochem) was used to separate peptides over a 4 hour gradient from 0 to 75% acetonitrile. Ions were generated using a custom nanospray source flowing at 250 nL/minute. Mass spectrometry settings were 70,000 MS1 resolution, data dependent selection of up to 20 precursor ions per cycle, dynamic exclusion of 30 seconds and isolation window of 2 m/z. The nuclear fraction from the experiment using UNC0638 on cells in heavy media was additionally analyzed by 2D HPLC-MS/MS as described earlier.
Peptides were identified and quantified using MaxQuant version 1.2.2.5 (Cox and Mann, supra) with the following changes to default settings: mono- and di-methylation of lysine, and oxidation of methionine, and N-terminal acetylation as variable modifications, disabled “I=L”, up to three modifications per peptide, one missed cleavage, maximum charge of 5. Protein and peptide FDR were set to 1%, and proteins were filtered post-hoc for at least two unique peptides. Proteins were excluded from an experiment if they were not quantified in both labeling directions. Because FDR is unreliable for small numbers of peptides the modification site FDR was set to 10% and all methylated peptides were manually verified. […] Quantitative protein data was normalized to the mean value among proteins identified by analyzing 50 ng of digested loading control.
For UNC0638 experiments the treated vs. untreated ratio was determined by subtracting the value from 3×MBTD355N prior to dividing values from the light and heavy channels. Only proteins showing a two-fold signal to background ratio (3×MBT/3×MBTD355N) were evaluated as potential G9a/GLP substrates.

G9a and GLP = molecular target: T1, G9a and GLP (Homo sapiens, UniProt Q96KQ7+Q9H9B1); assay: Triple SILAC pull-down after UNC0638 treatment of 293T cells, DMSO/UNC0638 ratio of protein captured by 3×MBT; assay type: cell-based; parameters: endogenous in cells; host or cells: HEK 293T; settings: for Protein Ratios DMSO/UNC0638: SILAC ratio of protein captured by 3xMBT, 293T cells treated 24 hours with UNC0638 at 2.5 μM or DMSO;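 as to all read-outs here: mass spectrometry (Q-Exactive) SILAC quantitation, DMSO/UNC0638 ratio computed after subtracting 3×MBTD355N mutant pull-down background, only proteins with at least twofold 3×MBT over mutant signal considered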
T1 sequence (Q96KQ7 2-1210 limits assumed): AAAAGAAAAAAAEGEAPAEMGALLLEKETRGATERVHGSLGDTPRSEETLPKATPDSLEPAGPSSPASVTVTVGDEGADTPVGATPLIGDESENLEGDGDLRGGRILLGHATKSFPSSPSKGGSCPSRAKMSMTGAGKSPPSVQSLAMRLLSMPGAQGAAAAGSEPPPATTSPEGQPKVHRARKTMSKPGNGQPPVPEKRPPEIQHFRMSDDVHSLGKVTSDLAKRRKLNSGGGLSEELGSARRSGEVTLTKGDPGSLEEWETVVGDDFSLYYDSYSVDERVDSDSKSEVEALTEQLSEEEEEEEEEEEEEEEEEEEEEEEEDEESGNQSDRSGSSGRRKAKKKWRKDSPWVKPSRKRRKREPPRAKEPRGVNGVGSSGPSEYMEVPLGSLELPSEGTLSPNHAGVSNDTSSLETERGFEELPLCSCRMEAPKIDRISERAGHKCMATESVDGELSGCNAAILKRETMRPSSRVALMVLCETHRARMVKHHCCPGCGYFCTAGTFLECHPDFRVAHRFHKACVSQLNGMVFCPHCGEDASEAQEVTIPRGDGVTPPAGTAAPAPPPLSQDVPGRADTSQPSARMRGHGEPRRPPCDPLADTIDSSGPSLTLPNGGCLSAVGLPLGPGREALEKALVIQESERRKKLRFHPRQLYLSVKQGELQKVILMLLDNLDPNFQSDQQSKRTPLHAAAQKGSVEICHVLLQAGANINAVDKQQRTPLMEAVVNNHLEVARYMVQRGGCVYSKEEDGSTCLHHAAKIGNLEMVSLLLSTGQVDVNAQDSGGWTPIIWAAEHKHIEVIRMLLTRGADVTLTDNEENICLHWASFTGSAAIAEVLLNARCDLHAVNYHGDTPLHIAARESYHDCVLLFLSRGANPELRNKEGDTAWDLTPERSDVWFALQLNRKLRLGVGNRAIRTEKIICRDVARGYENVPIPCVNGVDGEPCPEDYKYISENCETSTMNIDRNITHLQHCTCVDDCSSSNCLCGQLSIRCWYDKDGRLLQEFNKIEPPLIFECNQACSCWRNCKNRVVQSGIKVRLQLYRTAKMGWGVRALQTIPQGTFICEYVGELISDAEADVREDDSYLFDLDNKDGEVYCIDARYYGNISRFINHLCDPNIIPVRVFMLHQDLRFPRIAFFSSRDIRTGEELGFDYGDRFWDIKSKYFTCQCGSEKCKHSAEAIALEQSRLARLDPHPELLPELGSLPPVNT
T1 sequence (Q9H9B1 2-1298 limits assumed): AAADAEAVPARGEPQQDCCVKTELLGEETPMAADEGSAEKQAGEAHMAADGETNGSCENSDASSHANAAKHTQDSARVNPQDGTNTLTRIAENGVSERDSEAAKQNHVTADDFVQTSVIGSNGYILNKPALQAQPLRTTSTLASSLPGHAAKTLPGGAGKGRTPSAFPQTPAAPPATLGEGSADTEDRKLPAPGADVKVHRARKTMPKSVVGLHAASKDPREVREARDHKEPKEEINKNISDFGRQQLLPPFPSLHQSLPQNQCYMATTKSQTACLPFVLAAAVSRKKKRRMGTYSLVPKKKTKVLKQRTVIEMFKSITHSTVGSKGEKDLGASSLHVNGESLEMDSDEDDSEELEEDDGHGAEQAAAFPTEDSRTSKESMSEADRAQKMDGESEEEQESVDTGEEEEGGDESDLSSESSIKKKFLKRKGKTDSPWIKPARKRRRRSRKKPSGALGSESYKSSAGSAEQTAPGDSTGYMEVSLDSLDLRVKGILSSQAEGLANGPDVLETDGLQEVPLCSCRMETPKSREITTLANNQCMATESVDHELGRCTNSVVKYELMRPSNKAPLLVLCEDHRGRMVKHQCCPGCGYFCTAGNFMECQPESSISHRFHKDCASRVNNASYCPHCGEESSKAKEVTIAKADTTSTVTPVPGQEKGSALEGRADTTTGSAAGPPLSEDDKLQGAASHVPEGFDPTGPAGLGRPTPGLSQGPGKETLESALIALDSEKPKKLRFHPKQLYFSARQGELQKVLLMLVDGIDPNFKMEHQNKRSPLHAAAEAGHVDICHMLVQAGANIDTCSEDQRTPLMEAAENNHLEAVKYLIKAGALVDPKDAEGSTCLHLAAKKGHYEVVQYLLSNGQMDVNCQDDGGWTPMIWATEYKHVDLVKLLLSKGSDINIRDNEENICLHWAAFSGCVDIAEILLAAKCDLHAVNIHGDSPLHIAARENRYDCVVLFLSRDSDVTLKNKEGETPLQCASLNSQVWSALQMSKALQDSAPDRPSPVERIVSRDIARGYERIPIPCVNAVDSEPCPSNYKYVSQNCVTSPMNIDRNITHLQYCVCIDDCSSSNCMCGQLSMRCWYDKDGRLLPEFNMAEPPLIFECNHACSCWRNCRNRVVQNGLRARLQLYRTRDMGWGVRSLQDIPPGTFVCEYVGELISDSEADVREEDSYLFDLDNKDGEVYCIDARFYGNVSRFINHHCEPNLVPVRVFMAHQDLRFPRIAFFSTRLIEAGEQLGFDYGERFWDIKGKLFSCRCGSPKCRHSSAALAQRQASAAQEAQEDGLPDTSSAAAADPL

B1: RNA-binding protein 15 (protein)
chain: MRTAGRDPVPRRSPRWRRAVPLCETSAGRRVTQLRGDDLRRPATMKGKERSPVKAKRSRGGEDSTSRGERSKKLGGSGGSNGSSSGKTDSGGGSRRSLHLDKSSSRGGSREYDTGGGSSSSRLHSYSSPSTKNSSGGGESRSSSRGGGGESRSSGAASSAPGGGDGAEYKTLKISELGSQLSDEAVEDGLFHEFKRFGDVSVKISHLSGSGSGDERVAFVNFRRPEDARAAKHARGRLVLYDRPLKIEAVYVSRRRSRSPLDKDTYPPSASVVGASVGGHRHPPGGGGGQRSLSPGGAALGYRDYRLQQLALGRLPPPPPPPLPRDLERERDYPFYERVRPAYSLEPRVGAGAGAAPFREVDEISPEDDQRANRTLFLGNLDITVTESDLRRAFDRFGVITEVDIKRPSRGQTSTYGFLKFENLDMSHRAKLAMSGKIIIRNPIKIGYGKATPTTRLWVGGLGPWVPLAALAREFDRFGTIRTIDYRKGDSWAYIQYESLDAAHAAWTHMRGFPLGGPDRRLRVDFADTEHRYQQQYLQPLPLTHYELVTDAFGHRAPDPLRGARDRTPPLLYRDRDRDLYPDSDWVPPPPPVRERSTRTAATSVPAYEPLDSLDRRRDGWSLDRDRGDRDLPSSRDQPRKRRLPEESGGRHLDRSPESDRPRKRHCAPSPDRSPELSSSRDRYNSDNDRSSRLLLERPSPIRDRRGSLEKSQGDKRDRKNSASAERDRKHRTTAPTEGKSPLKKEDRSDGSAPSTSTASSKLKSPSQKQDGGTAPVASASPKLCLAWQGMLLLKNSNFPSNMHLLQGDLQVASSLLVEGSTGGKVAQLKITQRLRLDQPKLDEVTRRIKVAGPNGYAILLAVPGSSDSRSSSSSAASDTATSTQRPLRNLVSYLKQKQAAGVISLPVGGNKDKENTGVLHAFPPCEFSQQFLDSPAKALAKSEEDYLVMIIVRGFGFQIGVRYENKKRENLALTLL
3xMBT/D355N UNC Heavy (3×MBT domain of L3MBTL1; pull-down 3xMBT vs 3xMBTD355N, experiment with UNC0638 in heavy SILAC media): 2.14 log base 2
3xMBT/D355N UNC Light (3×MBT domain of L3MBTL1; pull-down 3xMBT vs 3xMBTD355N, experiment with UNC0638 in light SILAC media): 4.48 log base 2
Protein Ratios 3xMBT/D355N (3×MBT domain of L3MBTL1): 9.9
Relative to UNC0638 UNC Heavy (G9a and GLP; SILAC ratio DMSO/UNC0638 of protein pulled down with 3xMBT, UNC0638 in heavy SILAC media): 1.65 log base 2
Relative to UNC0638 UNC Light (G9a and GLP; SILAC ratio DMSO/UNC0638 of protein pulled down with 3xMBT, UNC0638 in light SILAC media): 0.26 log base 2
Protein Ratios DMSO/UNC0638 (G9a and GLP): 1.9
Relative to UNC0638 Average (G9a and GLP; average of UNC Light and UNC Heavy experiments): 0.96 log base 2
Candidate G9a/GLP target (G9a and GLP; reduced association with 3xMBT after UNC0638 treatment): ✓

B2: Apoptosis inhibitor 5 (protein, UniProt Q9BZZ5 2-524, looked up)
Apoptosis inhibitor 5: PTVEELYRNYGILADATEQVGQHKDAYQVILDGVKGGTKEKRLAAQFIPKFFKHFPELADSAINAQLDLCEDEDVSIRRQAIKELPQFATGENLPRVADILTQLLQTDDSAEFNLVNNALLSIFKMDAKGTLGGLFSQILQGEDIVRERAIKFLSTKLKTLPDEVLTKEVEELILTESKKVLEDVTGEEFVLFMKILSGLKSLQTVSGRQQLVELVAEQADLEQTFNPSDPDCVDRLLQCTRQAVPLFSKNVHSTRFVTYFCEQVLPNLGTLTTPVEGLDIQLEVLKLLAEMSSFCGDMEKLETNLRKLFDKLLEYMPLPPEEAENGENAGNEEPKLQFSYVECLLYSFHQLGRKLPDFLTAKLNAEKLKDFKIRLQYFARGLQVYIRQLRLALQGKTGEALKTEENKIKVVALKITNNINVLIKDLFHIPPSYKSTVTLSWKPVQKVEIGQKRASEDTTSGSPPKKSSAGPKRDARQIYNPPSGKYSSNLGNFNYEQRGAFRGSRGGRGWGTRGNRSRGRLY
Protein Ratios 3xMBT/D355N (3×MBT domain of L3MBTL1): 8.6
Protein Ratios DMSO/UNC0638 (G9a and GLP): 1.6

B3: Hematological and neurological-expressed 1-like protein (protein, UniProt Q9H910 1-190, looked up)
Jupiter microtubule …: MFQVPDSEGGRAGSRAMKPPGGESSNLFGSPEEATPSSRPNRMASNIFGPTEEPQNIPKRTNPPGGKGSGIFDESTPVQTRQHLNPPGGKTSDIFGSPVTATSRLAHPNKPKDHVFLCEGEEPKSDLKAARSIPAGAEPGEKGSARKAGPAKEQEPMPTVDSHEPRLGPRPRSHNKVLNPPGGKSSISFY
Protein Ratios 3xMBT/D355N (3×MBT domain of L3MBTL1): 8.9
Protein Ratios DMSO/UNC0638 (G9a and GLP): 1.6

B4: DDB1- and CUL4-associated factor 7 (protein, UniProt P61962 1-342, looked up)
DDB1- and CUL4-associated …: MSLHGKRKEIYKYEAPWTVYAMNWSVRPDKRFRLALGSFVEEYNNKVQLVGLDEESSEFICRNTFDHPYPTTKLMWIPDTKGVYPDLLATSGDYLRVWRVGETETRLECLLNNNKNSDFCAPLTSFDWNEVDPYLLGTSSIDTTCTIWGLETGQVLGRVNLVSGHVKTQLIAHDKEVYDIAFSRAGGGRDMFASVGADGSVRMFDLRHLEHSTIIYEDPQHHPLLRLCWNKQDPNYLATMAMDGMEVVILDVRVPCTPVARLNNHRACVNGIAWAPHSSCHICTAADDHQALIWDIQQMPRAIEDPILAYTAEGEINNVQWASTQPDWIAICYNNCLEILRV
Protein Ratios 3xMBT/D355N (3×MBT domain of L3MBTL1): 2.8
Protein Ratios DMSO/UNC0638 (G9a and GLP): 1.5

B5: Peptidyl-prolyl cis-trans isomerase-like 4 (protein, UniProt Q8WUA2 1-492, looked up)
Peptidyl-prolyl cis-trans …: MAVLLETTLGDVVIDLYTEERPRACLNFLKLCKIKYYNYCLIHNVQRDFIIQTGDPTGTGRGGESIFGQLYGDQASFFEAEKVPRIKHKKKGTVSMVNNGSDQHGSQFLITTGENLDYLDGVHTVFGEVTEGMDIIKKINETFVDKDFVPYQDIRINHTVILDDPFDDPPDLLIPDRSPEPTREQLDSGRIGADEEIDDFKGRSAEEVEEIKAEKEAKTQAILLEMVGDLPDADIKPPENVLFVCKLNPVTTDEDLEIIFSRFGPIRSCEVIRDWKTGESLCYAFIEFEKEEDCEKAFFKMDNVLIDDRRIHVDFSQSVAKVKWKGKGGKYTKSDFKEYEKEQDKPPNLVLKDKVKPKQDTKYDLILDEQAEDSKSSHSHTSKKHKKKTHHCSEEKEDEDYMPIKNTNQDIYREMGFGHYEEEESCWEKQKSEKRDRTQNRSRSRSRERDGHYSNSHKSKYQTDLYERERSKKRDRSRSPKKSKDKEKSKYR
Protein Ratios 3xMBT/D355N (3×MBT domain of L3MBTL1): 4.0
Protein Ratios DMSO/UNC0638 (G9a and GLP): 1.4
